T1: biotinylated human DLL3 protein expressed as a human IgG1 fusion protein (human, UniProt Q9NYJ7 27-492, limits assumed, biotinylated)
T1 sequence: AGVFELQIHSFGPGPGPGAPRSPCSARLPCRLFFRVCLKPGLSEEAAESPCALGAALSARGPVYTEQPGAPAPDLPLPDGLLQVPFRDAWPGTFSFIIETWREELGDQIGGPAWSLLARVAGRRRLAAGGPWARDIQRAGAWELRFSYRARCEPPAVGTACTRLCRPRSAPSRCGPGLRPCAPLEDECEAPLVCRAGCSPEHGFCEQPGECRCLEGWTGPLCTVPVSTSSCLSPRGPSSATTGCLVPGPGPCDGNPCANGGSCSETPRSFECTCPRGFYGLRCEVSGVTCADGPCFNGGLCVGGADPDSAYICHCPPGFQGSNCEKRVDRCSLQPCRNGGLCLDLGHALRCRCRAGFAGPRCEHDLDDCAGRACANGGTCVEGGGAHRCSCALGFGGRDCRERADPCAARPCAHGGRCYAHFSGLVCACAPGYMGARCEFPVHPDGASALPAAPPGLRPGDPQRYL

B1: 3E011 anti-DLL3 trispecific protein (other)
chain: EVQLVESGGGLVQPGGSLTLSCAASGSKVSFLSMAWYRQAPGKKRELVAGISRDGSTDYIDSVKGRFTISRDNAKNSVYLQMNSLRAEDTAVYYCYAYRWTTRYTFWGQGTLVTVSS
notes: not shown: linker 1808, anti-albumin sdAb, linker 1808, anti-CD3 fragment, His6 1819
B2: 3G04 anti-DLL3 trispecific protein (other)
chain: EVQLVESGGGLVQPGGSLTLSCVASGTSVSFLSMAWYRQAPGKKRELVAGISADGSTIYIDSVKGRFTISRDNAKNSVYLQMNSLRAEDTAVYYCYAYRWTTRRTYWGQGTLVTVSS
notes: as for B1
B3: 3F011 anti-DLL3 trispecific protein (other)
chain: EVQLVESGGGLVQPGGSLTLSCAASGSSVSFLSMAWYRQAPGKKRELVAGISTDGSTDYIDSVKGRFTISRDNAKNSVYLQMNSLRAEDTAVYYCYAYRWRTRYTYWGQGTLVTVSS
notes: as for B1
B4: 3F05 anti-DLL3 trispecific protein (other)
chain: EVQLVESGGGLVQPGGSLTLSCAASGSKVSFLSMAWYRQAPGKKRELVAGISTDGSTDYIDSVKGRFTISRDNAKNSVYLQMNSLRAEDTAVYYCYAYRWTTRRTYWGQGTLVTVSS
notes: as for B1
B5: 3G09 anti-DLL3 trispecific protein (other)
chain: EVQLVESGGGLVQPGGSLTLSCAASGSSVSVLSMAWYRQAPGKKRELVAGISADGSTDYIGSVKGRFTISRDNAKNSVYLQMNSLRAEDTAVYYCYAYRWTTRTTYWGQGTLVTVSS
notes: as for B1
B6: 3H07 anti-DLL3 trispecific protein (other)
chain: EVQLVESGGGLVQPGGSLTLSCAASGSRVSFLSMAWYRQAPGKKRELVAGISADGSTSYIDSVKGRFTISRDNAKNSVYLQMNSLRAEDTAVYYCYAYRWRTRYTYWGQGTLVTVSS
notes: as for B1
B7: 3F010 anti-DLL3 trispecific protein (other)
chain: EVQLVESGGGLVQPGGSLTLSCAASYSSVSRLSMAWYRQAPGKKRELVAGISADGSTVYIDSVKGRFTISRDNAKNSVYLQMNSLRAEDTAVYYCYAYRWTTRNTYWGQGTLVTVSS
notes: as for B1
B8: 3G02 anti-DLL3 trispecific protein (other)
chain: EVQLVESGGGLVQPGGSLTLSCAASGSSVSFLSMAWYRQAPGKKRELVAGISADGRTDYIDSVKGRFTISRDNAKNSVYLQMNSLRAEDTAVYYCYAYRWRTRYTYWGQGTLVTVSS
notes: as for B1
B9: 3G010 anti-DLL3 trispecific protein (other)
chain: EVQLVESGGGLVQPGGSLTLSCAASGSSVSFLSMAWYRQAPGKKRELVAGISVDGSTDYIDSVKGRFTISRDNAKNSVYLQMNSLRAEDTAVYYCYAYRWRTRYTYWGQGTLVTVSS
notes: as for B1
B10: 3H03 anti-DLL3 trispecific protein (other)
chain: EVQLVESGGGLVQPGGSLTLSCAASGSSVRFLSMAWYRQAPGKKRELVAGISTDGSTDYIDSVKGRFTISRDNAKNSVYLQMNSLRAEDTAVYYCYALRWTTRYTYWGQGTLVTVSS
notes: as for B1
B11: 3F08 anti-DLL3 trispecific protein (other)
chain: EVQLVESGGGLVQPGGSLTLSCAASGSRVSFLSMAWYRQAPGKKRELVAGISADGSTLYIDSVKGRFTISRDNAKNSVYLQMNSLRAEDTAVYYCYAYRWHTRYTYWGQGTLVTVSS
notes: as for B1
B12: 4A04 anti-DLL3 trispecific protein (other)
chain: EVQLVESGGGLVQPGGSLTLSCAASGSRVSFLSMAWYRQAPGKKRELVAGISARGSTDYIDSVKGRFTISRDNAKNSVYLQMNSLRAEDTAVYYCYAYRWSTRYTYWGQGTLVTVSS
notes: as for B1
B13: 3H09 anti-DLL3 trispecific protein (other)
chain: EVQLVESGGGLVQPGGSLTLSCAASKSSVSFLSMAWYRQAPGKKRELVAGISADGSTDYIDSVKGRFTISRDNAKNSVYLQMNSLRAEDTAVYYCYAYRWTTRATYWGQGTLVTVSS
notes: as for B1
B14: 3F06 anti-DLL3 trispecific protein (other)
chain: EVQLVESGGGLVQPGGSLTLSCAASGSRVSFLSMAWYRQAPGKKRELVAGISADGSTSYIDSVKGRFTISRDNAKNSVYLQMNSLRAEDTAVYYCYAYRWATRYTYWGQGTLVTVSS
notes: as for B1
B15: 4A01 anti-DLL3 trispecific protein (other)
chain: EVQLVESGGGLVQPGGSLTLSCAASGSSVRFLSMAWYRQAPGKKRELVAGISQDGSTDYIDSVKGRFTISRDNAKNSVYLQMNSLRAEDTAVYYCYAYRWRTRYTYWGQGTLVTVSS
notes: as for B1
B16: 4A02 anti-DLL3 trispecific protein (other)
chain: EVQLVESGGGLVQPGGSLTLSCAASGSSVRFLSMAWYRQAPGKKRELVAGISNDGSTDYIDSVKGRFTISRDNAKNSVYLQMNSLRAEDTAVYYCYAYRWKTRYTYWGQGTLVTVSS
notes: as for B1
B17: 3G08 anti-DLL3 trispecific protein (other)
chain: EVQLVESGGGLVQPGGSLTLSCAASGSRVSFLSMAWYRQAPGKKRELVAGISKDGSTDYIDSVKGRFTISRDNAKNSVYLQMNSLRAEDTAVYYCYAYRWTTRVTYWGQGTLVTVSS
notes: as for B1
B18: 3G07 anti-DLL3 trispecific protein (other)
chain: EVQLVESGGGLVQPGGSLTLSCAASGSSVSFLSMAWYRQAPGKKRELVAGISRDGSTDYIDSVKGRFTISRDNAKNSVYLQMNSLRAEDTAVYYCYAYRWTSRYTYWGQGTLVTVSS
notes: as for B1
B19: 3G01 anti-DLL3 trispecific protein (other)
chain: EVQLVESGGGLVQPGGSLTLSCAASGSSVSFLSMAWYRQAPGKKRELVAGISADGSTLYIDSVKGRFTISRDNAKNSVYLQMNSLRAEDTAVYYCYAYRWTTRYAYWGQGTLVTVSS
notes: as for B1
B20: 3G011 anti-DLL3 trispecific protein (other)
chain: EVQLVESGGGLVQPGGSLTLSCAASGSRVSFLSMAWYRQAPGKKRELVAGISADGSTGYIDSVKGRFTISRDNAKNSVYLQMNSLRAEDTAVYYCYAYRWATRYTYWGQGTLVTVSS
notes: as for B1
B21: 3H010 anti-DLL3 trispecific protein (other)
chain: EVQLVESGGGLVQPGGSLTLSCAASGSSVSFLSMAWYRQAPGKKRELVAGISADGSTAYIDSVKGRFTISRDNAKNSVYLQMNSLRAEDTAVYYCYAYRWTTRRTYWGQGTLVTVSS
notes: as for B1
B22: 3G06 anti-DLL3 trispecific protein (other)
chain: EVQLVESGGGLVQPGGSLTLSCAASGSSVKFLSMAWYRQAPGKKRELVAGISADGSTLYIDSVKGRFTISRDNAKNSVYLQMNSLRAEDTAVYYCYAYRWTTRRTYWGQGTLVTVSS
notes: as for B1
B23: 3H01 anti-DLL3 trispecific protein (other)
chain: EVQLVESGGGLVQPGGSLTLSCVASGSSVKFLSMAWYRQAPGKKRELVAGISGDGSTTYIDSVKGRFTISRDNAKNSVYLQMNSLRAEDTAVYYCYAYRWTTRRTYWGQGTLVTVSS
notes: as for B1
B24: 3F09 anti-DLL3 trispecific protein (other)
chain: EVQLVESGGGLVQPGGSLTLSCAASGSSVRFLSMAWYRQAPGKKRELVAGISRDGSTDYIDSVKGRFTISRDNAKNSVYLQMNSLRAEDTAVYYCYAYRWGTRYTYWGQGTLVTVSS
notes: as for B1

The results in this text go back to patent US20240141072A1 (published 2024).

The experiment concerns the target T1, biotinylated human DLL3 protein …. The experiment in a line: Octet BLI, single 50 nM. In a few lines:
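Analyte: trispecific anti-DLL3 proteins in conditioned medium, concentration known; ligand: captured DLL3 fusion; output: binding affinity.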
In general terms: In BLI a coated tip is dipped into the sample, and binding shifts an interference pattern.
The term Kd denotes a measure of binding affinity in units of concentration. A higher Kd goes with lower affinity. Molecule B1 returned a Kd of 11 nM.
The result for B2 reads 8.8 nM; that for B3, 7.1 nM.
The result for B4 reads 7.5 nM.
The result for B5 reads 7.3 nM.
Molecule B6 displayed a Kd of 13 nM.
B7: the Kd was determined as 4.4 nM.
For B8 the value was 20 nM; for B9, 6.9 nM.
For the molecule B10, the dissociation constant Kd is 9.9 nM.
For B11 the value was 14 nM; for B12, 35 nM; for B13, 14 nM.
The result for B14 reads 9.9 nM.
For B15 the value was 10 nM; for B16, 9 nM; for B17, 12 nM.
Turning to B18, the Kd came out at 13 nM.
The result for B19 reads 8.2 nM; that for B20, 17 nM.
Regarding B21, the Kd is 8.6 nM. This Kd is about 2-fold lower than that of the molecule before.
The result for B22 reads 12 nM; that for B23, 9 nM.
The result for B24 reads 12 nM.
